Data on 1 protein can be found in article PMC4579057 (Journal of molecular biology, 2015).

The series deals with the molecule itself. The series is described as follows: SEC. For orientation: SEC sorts molecules by how far they enter the pores of the column.

B1: APOBEC3B carboxy-terminal domain 193-CTD (Met-193 to the carboxy-terminal end) (domain or fragment)
chain: not shown
As for B1, the stoichiometry N (as a rule, a count of units in the complex or per binding partner) amounted to 2.
